Experimental data from patent publication US20250109201A1 (AGENUS, published 2025).

How the values were obtained:
[1] = target: T1, recombinant human LILRA3/ILT6 (Sino Biological 13549-H08H-100) (human, UniProt Q8N6C8 24-439); assay: SPR, LILRA and LILRB family panel
T1 construct: Bought
Description: (§1) Irrelevant antibody VRC01 IgG1 N297A was used as a negative isotype control.

[2] = target: T2, recombinant human LILRA1/LIR-6 (Sino Biological 17220-H08H-100) (human, UniProt O75019 17-461); assay: SPR, LILRA and LILRB family panel
T2 construct: Bought
Description: as §1

[3] = target: T3, ECD-His tagged human ILT2 haplotype PE01 (human, UniProt Q8NHL6 24-458); assay: SPR, LILRA and LILRB family panel
T3 construct: also called Human ILT2 PE01 ECD; LILRB1/ILT2 PE01; not shown: His tag
Description: as §1

[4] = target: full-length ILT2 expressed on Jurkat cells (human, UniProt Q8NHL6 24-650); assay: cell-based or functional assay
[5] = target: T4, human ILT2 extracellular and transmembrane domains expressed on CHO cells (human, UniProt Q8NHL6 24-482, limits assumed); assay: flow cytometry, CHO cells with high human ILT2
T4 construct: domain: extracellular and transmembrane domains; which one is told under assay; also called CHO cells expressing human ILT2 (relatively low or relatively high level); CHO-ILT2 cells
Protocol: (§2) CHO cells expressing relatively high and low levels of human ILT2 were seeded in a 96-well U-bottom tissue culture plate at a density of 2×10⁵ cells per well in 50 μL of PBS supplemented with 0.5% BSA, 1 mM EDTA and 0.05% sodium azide (FACS Buffer). The cells were incubated for 30 minutes at 4° C. with 50 μL of a series dilution of anti-ILT2 antibodies or isotype control (VRC01 IgG₄) at concentrations from 10 μg/mL to 0.2 ng/mL in FACS Buffer.
(§3) For antibody staining, the cells were washed three times with cold FACS Buffer and resuspended in FACS Buffer containing a FITC-conjugated mouse anti-human IgG₄ antibody (Southern Biotech/9190-02) at a final concentration of […]. After a 30-minute incubation in the dark at 4° C., the cells were washed three times and analyzed as above.

[6] = target: T5, recombinant human LILRB3/ILT5 (R&D Systems 9159-T5-050) (human, UniProt O75022 24-443); assay: SPR
T5 construct: Bought
Description: as §1

[7] = target: T6, recombinant human LILRB4/ILT3 (Sino Biological 16742-H08H) (human, UniProt Q8NHJ6 22-259); assay: SPR
T6 construct: Bought
Description: as §1

[8] = target: T7, recombinant human LILRA2/ILT1 (R&D Systems 9040-T4-050) (human, UniProt Q8N149 24-449); assay: SPR
T7 construct: Bought
Description: as §1

[9] = target: T8, recombinant human LILRA4/ILT7 (Sino Biological 16058-H08H-50) (human, UniProt P59901 24-446); assay: SPR
T8 construct: Bought
Description: as §1

[10] = target: T9, recombinant human LILRB5/LIR-8 (Sino Biological 17221-H08H-100) (human, UniProt O75023 24-458); assay: SPR
T9 construct: Bought
Description: as §1

[11] = target: T10, recombinant human LILRA6/ILT8 (Sino Biological 29813-H08H-50) (human, UniProt Q6PI73 24-447); assay: SPR
T10 construct: Bought
Description: as §1

[12] = target: T11, recombinant human LILRA5/ILT11 (Sino Biological 16059-H08H-100) (human, UniProt A6NI73 42-268); assay: SPR
T11 construct: Bought
Description: as §1

[13] = target: T4, human ILT2 extracellular and …; assay: flow cytometry, CHO cells with low human ILT2
Protocol: as §2, §3

T4 sequence (Q8NHL6 24-482 limits assumed): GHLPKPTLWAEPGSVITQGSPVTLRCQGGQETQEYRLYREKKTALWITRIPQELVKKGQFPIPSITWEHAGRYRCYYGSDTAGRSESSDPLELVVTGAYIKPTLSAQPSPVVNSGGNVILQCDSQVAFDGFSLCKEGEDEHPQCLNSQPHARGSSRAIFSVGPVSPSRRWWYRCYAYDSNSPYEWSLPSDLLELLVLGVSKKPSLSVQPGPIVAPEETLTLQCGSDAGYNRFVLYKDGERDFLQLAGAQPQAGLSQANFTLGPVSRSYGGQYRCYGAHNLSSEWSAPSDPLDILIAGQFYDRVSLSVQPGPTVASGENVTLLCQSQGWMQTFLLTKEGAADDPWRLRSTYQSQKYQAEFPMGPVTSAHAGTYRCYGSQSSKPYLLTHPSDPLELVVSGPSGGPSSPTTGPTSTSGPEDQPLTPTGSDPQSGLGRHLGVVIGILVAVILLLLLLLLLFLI
T8 sequence (P59901 24-446 limits assumed): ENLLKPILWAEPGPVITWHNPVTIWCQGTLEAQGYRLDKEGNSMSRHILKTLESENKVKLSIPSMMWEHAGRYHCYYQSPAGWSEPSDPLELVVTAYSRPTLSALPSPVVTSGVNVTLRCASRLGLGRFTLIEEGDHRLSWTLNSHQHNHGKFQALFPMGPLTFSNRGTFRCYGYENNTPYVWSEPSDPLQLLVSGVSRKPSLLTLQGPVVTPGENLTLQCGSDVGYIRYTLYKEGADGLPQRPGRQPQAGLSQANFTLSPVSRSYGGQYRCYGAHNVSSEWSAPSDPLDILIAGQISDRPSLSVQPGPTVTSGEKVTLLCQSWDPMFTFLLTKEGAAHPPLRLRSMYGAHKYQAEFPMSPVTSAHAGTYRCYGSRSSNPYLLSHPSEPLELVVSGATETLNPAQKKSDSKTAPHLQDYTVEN
T11 sequence (A6NI73 42-268 limits assumed): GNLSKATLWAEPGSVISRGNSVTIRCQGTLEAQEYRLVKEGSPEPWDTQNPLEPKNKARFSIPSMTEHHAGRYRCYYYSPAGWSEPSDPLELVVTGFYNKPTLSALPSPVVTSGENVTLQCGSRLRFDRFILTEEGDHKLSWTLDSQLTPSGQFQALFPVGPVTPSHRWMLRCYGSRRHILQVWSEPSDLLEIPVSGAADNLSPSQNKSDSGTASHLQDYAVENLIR
Sequence of full-length ILT2 expressed on Jurkat cells (Q8NHL6 24-650): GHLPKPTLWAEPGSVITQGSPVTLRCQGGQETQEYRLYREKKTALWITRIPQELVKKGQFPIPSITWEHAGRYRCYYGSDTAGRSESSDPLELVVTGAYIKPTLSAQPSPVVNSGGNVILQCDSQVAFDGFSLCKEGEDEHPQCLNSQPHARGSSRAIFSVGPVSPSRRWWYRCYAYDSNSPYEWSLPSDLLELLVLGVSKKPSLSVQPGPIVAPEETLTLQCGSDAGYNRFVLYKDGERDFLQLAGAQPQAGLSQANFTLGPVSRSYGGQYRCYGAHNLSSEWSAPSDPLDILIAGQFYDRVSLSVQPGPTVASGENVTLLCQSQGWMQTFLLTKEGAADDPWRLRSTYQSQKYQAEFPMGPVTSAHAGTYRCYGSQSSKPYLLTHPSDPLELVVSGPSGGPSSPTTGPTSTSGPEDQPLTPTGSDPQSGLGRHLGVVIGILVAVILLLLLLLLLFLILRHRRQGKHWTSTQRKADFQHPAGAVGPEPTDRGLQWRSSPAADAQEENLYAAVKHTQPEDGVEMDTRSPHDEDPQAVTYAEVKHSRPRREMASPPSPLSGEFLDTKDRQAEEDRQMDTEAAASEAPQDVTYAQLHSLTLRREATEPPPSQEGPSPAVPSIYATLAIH
T2 sequence (O75019 17-461 limits assumed): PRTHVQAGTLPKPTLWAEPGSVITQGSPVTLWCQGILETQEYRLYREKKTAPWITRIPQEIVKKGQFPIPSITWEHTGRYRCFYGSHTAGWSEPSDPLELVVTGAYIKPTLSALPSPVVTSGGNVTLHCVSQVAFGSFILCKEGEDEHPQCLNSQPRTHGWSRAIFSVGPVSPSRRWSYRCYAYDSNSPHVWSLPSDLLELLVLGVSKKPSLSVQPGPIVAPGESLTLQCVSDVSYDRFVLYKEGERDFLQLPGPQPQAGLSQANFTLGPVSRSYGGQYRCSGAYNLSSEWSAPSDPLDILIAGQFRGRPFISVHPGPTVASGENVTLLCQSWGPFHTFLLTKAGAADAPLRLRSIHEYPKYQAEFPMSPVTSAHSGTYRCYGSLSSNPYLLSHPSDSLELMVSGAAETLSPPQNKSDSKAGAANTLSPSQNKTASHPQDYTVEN
T3 sequence (Q8NHL6 24-458): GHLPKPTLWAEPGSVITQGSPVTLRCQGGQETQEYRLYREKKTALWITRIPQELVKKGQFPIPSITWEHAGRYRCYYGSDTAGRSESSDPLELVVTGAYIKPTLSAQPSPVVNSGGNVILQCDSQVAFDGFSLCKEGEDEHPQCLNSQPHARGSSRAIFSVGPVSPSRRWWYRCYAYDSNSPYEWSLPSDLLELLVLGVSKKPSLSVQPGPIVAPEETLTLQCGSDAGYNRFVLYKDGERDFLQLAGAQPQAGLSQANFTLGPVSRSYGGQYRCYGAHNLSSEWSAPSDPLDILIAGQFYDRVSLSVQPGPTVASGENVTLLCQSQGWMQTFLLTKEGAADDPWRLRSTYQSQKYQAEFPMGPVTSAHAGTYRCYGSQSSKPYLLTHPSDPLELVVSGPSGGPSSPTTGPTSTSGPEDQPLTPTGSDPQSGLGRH
T7 sequence (Q8N149 24-449 limits assumed): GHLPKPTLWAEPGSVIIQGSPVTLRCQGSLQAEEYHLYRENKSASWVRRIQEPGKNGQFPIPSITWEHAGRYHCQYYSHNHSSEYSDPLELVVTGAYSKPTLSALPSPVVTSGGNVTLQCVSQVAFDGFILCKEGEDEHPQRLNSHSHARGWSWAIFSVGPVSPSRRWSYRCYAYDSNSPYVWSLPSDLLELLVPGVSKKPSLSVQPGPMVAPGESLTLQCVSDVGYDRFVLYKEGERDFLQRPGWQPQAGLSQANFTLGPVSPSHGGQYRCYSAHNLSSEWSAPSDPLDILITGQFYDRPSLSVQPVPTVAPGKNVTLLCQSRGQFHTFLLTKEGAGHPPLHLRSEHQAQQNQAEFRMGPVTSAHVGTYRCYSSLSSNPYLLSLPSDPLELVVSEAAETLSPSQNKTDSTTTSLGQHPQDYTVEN
T1 sequence (Q8N6C8 24-439 limits assumed): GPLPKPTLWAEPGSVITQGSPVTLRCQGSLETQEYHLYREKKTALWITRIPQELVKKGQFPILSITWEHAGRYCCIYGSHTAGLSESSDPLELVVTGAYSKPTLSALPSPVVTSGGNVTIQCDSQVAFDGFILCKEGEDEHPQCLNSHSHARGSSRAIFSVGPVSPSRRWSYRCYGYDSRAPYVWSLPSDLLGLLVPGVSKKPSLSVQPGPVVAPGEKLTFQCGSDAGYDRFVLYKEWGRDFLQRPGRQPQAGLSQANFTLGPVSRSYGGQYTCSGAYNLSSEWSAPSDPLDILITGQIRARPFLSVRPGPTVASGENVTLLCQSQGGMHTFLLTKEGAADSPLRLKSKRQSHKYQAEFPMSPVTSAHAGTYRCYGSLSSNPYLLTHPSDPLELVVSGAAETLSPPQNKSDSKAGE
T10 sequence (Q6PI73 24-447 limits assumed): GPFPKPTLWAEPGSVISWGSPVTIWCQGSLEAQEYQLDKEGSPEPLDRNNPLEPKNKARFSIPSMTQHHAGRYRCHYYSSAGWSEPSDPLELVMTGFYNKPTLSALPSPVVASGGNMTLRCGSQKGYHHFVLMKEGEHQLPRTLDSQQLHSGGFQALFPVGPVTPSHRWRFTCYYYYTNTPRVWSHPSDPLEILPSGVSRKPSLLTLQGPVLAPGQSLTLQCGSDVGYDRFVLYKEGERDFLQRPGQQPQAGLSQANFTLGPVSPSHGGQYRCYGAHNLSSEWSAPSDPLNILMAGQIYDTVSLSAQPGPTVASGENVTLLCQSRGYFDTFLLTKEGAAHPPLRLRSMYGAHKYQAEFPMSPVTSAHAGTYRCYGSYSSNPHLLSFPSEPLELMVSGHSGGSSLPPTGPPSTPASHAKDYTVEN
T9 sequence (O75023 24-458 limits assumed): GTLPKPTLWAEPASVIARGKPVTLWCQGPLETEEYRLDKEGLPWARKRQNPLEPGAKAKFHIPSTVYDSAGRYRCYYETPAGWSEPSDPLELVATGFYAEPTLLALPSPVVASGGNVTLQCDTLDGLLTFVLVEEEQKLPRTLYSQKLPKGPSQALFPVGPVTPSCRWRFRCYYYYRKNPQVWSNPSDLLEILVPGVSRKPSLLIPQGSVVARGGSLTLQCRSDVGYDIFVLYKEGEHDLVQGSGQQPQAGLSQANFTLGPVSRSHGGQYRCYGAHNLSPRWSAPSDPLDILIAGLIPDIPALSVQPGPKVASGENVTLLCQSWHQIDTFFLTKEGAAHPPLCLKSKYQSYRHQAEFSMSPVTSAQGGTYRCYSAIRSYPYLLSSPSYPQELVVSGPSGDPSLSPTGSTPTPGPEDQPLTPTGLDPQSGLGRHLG

B1: 15G8 (Reference antibody) (antibody, V domains shown)
VH: DVQLQGSGPGLVKPSETLSLTCSVTGYSITSGYYWNWIRQFPGKKLEWMGYISYDGSNNYNPSLKNRITISRDTSKNQFSLKLNSVTAADTATYYCAHGYSYYYAMDAWGQGTSVTVSS
VL: DIQMTQSPSSLSASVGDRVTITCRTSQDISNYLNWYQQKPGKAVKLLISYTSRLHSGVPSRFSGSGSGTDYTLTISSLQPEDFATYYCQQGNTLPTFGQGTKLEIK
Kd [1]: 24 nM | Kd [2]: 21 nM | Kd [3]: 10 nM | FcγRIIIa-NFAT luciferase signaling, EC50 [4]: 0.43 µg/mL | EC50 [5]: 0.155 µg/mL | binding result [6]: no binding | binding result [7]: no binding | binding result [8]: no binding | binding result [9]: no binding | binding result [10]: no binding | binding result [11]: no binding | binding result [12]: no binding | EC50 [13]: 0.019 µg/mL
